Reference: paper PMC7498313, “The Sac10b homolog from Sulfolobus islandicus is an RNA chaperone”
“And” between values parts separate entries of the source, which are not always exact repeats. Equal entries are not always repeated.

Tests used:
[1] = target: Sis10b M20E/L24E/L27E/F60E (Sulfolobus islandicus REY15A); experiment: cross-linking; 10 μg protein cross-linked with 0.5 mM DSP, with or without 5 μg of a 25-bp dsRNA, 30 min at 25 or 55°C, 20 mM potassium phosphate pH 7.6, 50 mM KCl; 15% SDS-PAGE, Coomassie stain
[2] = target: N-terminally truncated Sis10b (ΔN12) (Sulfolobus islandicus REY15A); experiment: as above
Sis10b wild-type = target: T1, Sis10b wild-type (Sulfolobus islandicus REY15A, UniProt F0NHH1 1-97); experiment: EMSA; 55°C; EMSA: 20 mM HEPES-NaOH pH 7.0, 1 mM DTT, 100 ug/ml BSA, 6% glycerol, 30 min at 25, 37 or 55°C; gel in 0.5x TBE at the same temperature; conditions: protein: recombinant, tags: none (NdeI/XhoI pET30a, stop codon in reverse primer), chain copies: 2
T1 sequence: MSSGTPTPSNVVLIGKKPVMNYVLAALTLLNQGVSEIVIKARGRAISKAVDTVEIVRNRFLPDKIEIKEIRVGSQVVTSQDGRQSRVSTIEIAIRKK

## Sis10b M20E/L24E/L27E/F60E
[1]
  stoichiometry N: 5 and 3

## N-terminally truncated Sis10b (ΔN12) (domain or fragment)
[2]
  stoichiometry N: 2 and 4

B1: 44-bp dsRNA (dsRNA)
RNA 1: UGACUUCCGCGCGUGAGCUCGAUUCCACAUACCCUAAAUCGCUC
RNA 2: GAGCGAUUUAGGGUAUGUGGAAUCGAGCUCACGCGCGGAAGUCA
Sis10b wild-type; label: 5' 32P on top strand, blunt
  Kd: ~29.4 nM

## UGACUUCCGCGCGUGAGCUCGAUUCCACAUACCCUAAAUCGCUC (ssRNA) [44-nt ssRNA (t)]
Sis10b wild-type; label: 5' 32P, single strand
  Kd: ~5.3 nM
